The source of these data is publication PMC10448276, “Mechanisms controlling membrane recruitment and activation of the autoinhibited SHIP1 inositol 5-phosphatase” (The Journal of Biological Chemistry, 2023).

The chains are these.
B1: mNG-SHIP1 (FL, 1–1188 aa), full-length human Src homology 2 domain–containing inositol 5-phosphatase 1 (enzyme, UniProt Q92835-2 1-1188, looked up)
chain: MVPCWNHGNITRSKAEELLSRTGKDGSFLVRASESISRAYALCVLYRNCVYTYRILPNEDDKFTVQASEGVSMRFFTKLDQLIEFYKKENMGLVTHLQYPVPLEEEDTGDDPEEDTESVVSPPELPPRNIPLTASSCEAKEVPFSNENPRATETSRPSLSETLFQRLQSMDTSGLPEEHLKAIQDYLSTQLAQDSEFVKTGSSSLPHLKKLTTLLCKELYGEVIRTLPSLESLQRLFDQQLSPGLRPRPQVPGEANPINMVSKLSQLTSLLSSIEDKVKALLHEGPESPHRPSLIPPVTFEVKAESLGIPQKMQLKVDVESGKLIIKKSKDGSEDKFYSHKKILQLIKSQKFLNKLVILVETEKEKILRKEYVFADSKKREGFCQLLQQMKNKHSEQPEPDMITIFIGTWNMGNAPPPKKITSWFLSKGQGKTRDDSADYIPHDIYVIGTQEDPLSEKEWLEILKHSLQEITSVTFKTVAIHTLWNIRIVVLAKPEHENRISHICTDNVKTGIANTLGNKGAVGVSFMFNGTSLGFVNSHLTSGSEKKLRRNQNYMNILRFLALGDKKLSPFNITHRFTHLFWFGDLNYRVDLPTWEAETIIQKIKQQQYADLLSHDQLLTERREQKVFLHFEEEEITFAPTYRFERLTRDKYAYTKQKATGMKYNLPSWCDRVLWKSYPLVHVVCQSYGSTSDIMTSDHSPVFATFEAGVTSQFVSKNGPGTVDSQGQIEFLRCYATLKTKSQTKFYLEFHSSCLESFVKSQEGENEEGSEGELVVKFGETLPKLKPIISDPEYLLDQHILISIKSSDSDESYGEGCIALRLEATETQLPIYTPLTHHGELTGHFQGEIKLQTSQGKTREKLYDFVKTERDESSGPKTLKSLTSHDPMKQWEVTSRAPPCSGSSITEIINPNYMGVGPFGPPMPLHVKQTLSPDQQPTAWSYDQPPKDSPLGPCRGESPPTPPGQPPISPKKFLPSTANRGLPPRTQESRPSDLGKNAGDTLPQEDLPLTKPEMFENPLYGSLSSFPKPAPRKDQESPKMPRKEPPPCPEPGILSPSIVLTKAQEADRGEGPGKQVPAPRLRSFTCSSSAEGRAAGGDKSQGKPKTPVSSQAPVPAKRPIKPSRSEINQQTPPTPTPRPPLPVKSPAVLHLQHSKGRDYRDNTELPHHGKHRPEEGPPGPLGRTAMQ
B2: pY-ITIM, phosphotyrosine peptide from the immunoreceptor tyrosine inhibitory motif (ITIM) of the FcγRIIB receptor (peptide)
peptide: CKTEAENTIT[pY]SLIK
modifications: also: N-terminal Cys coupled to maleimide headgroup of MCC-PE lipid in membrane-conjugated experiments
notes: cysteine added to the N terminus for coupling to the maleimide lipid; the tyrosine is phosphorylated; Used in solution (100 μM) or conjugated to supported lipid bilayers with 2% MCC-PE; also called pY peptide; ITIM peptide; source: synthetic peptide (Elim Biopharmaceuticals)

The target of test [1] is B2. Put plainly: cell-based or functional assay.
For test [2], the target named is B1. Put plainly: TIRF microscopy on supported lipid bilayers (bulk membrane recruitment); 5 nM mNG-SHIP1 construct in solution; pY-ITIM peptide covalently conjugated to maleimide lipid in the SLB (96% DOPC, 2% PI(3,4,5)P3, 2% MCC-PE); 23 °C. Particulars: both partners purified.

Non-standard residues stand in square brackets, D forms with d. No end group written: not given here. pY = N[C@@H](Cc1ccc(OP(=O)(O)O)cc1)C(=O)O

Regarding B1, the “lipid phosphatase activity of 20 nM FL SHIP1 on SLB (PI(3,4,5)P3 dephosphorylation, Grp1-AF647 sensor, reaction half time) with 100 μM pY-ITIM in solution” value in test [1] was roughly 5 fold.

With B2, the binding result in test [2] was “binds”.
